Numbering of substitutions follows the chain as printed.
Molecular target: WT RBD (SARS-CoV-2 Wuhan-Hu-1 spike receptor binding domain) (SARS-CoV-2 (Wuhan-Hu-1), UniProt P0DTC2)
Test: BLI
Conditions: both partners purified

B1: B2006 (antibody, V domains shown)
VH: EVQLVQSGAEVKKPGESLKISCKGFGSSFTNYWIGWVRQMPGKGLEWMGSVYAGDSDTRYSPSFQGQVTVSADKSITTAYLQWTSLKASDTAMYFCARASQGNYFDFWGQGTLVTVSS
VL: DIQMTQSPSTLSASVGDRVTITCRASQSISRWLAWYQQKPGKAPKLLIYDASILESGVPSRFSGSGSGTDFTLTISSLQPDDYATYYCQQFYSNLYTFGQGTKLEIK
notes: source: 293-6E cells, transfected, purified (Protein G Sepharose)
Kd: 0.582 nM

B2: C971 (antibody, V domains shown)
VH: EVQLVESGGGLVKPGGSLRLSCAASGFTFNNAWMTWVRQAPGKGLEWVGRIKSKTDGGTTDYGTPAKGRFTISRDDSKNTLYLQMKSLRTEDTAVYYCTTVDVQGIWELLENDAFDIWGQGTMVTVSS
VL: EIVLTQSPGTLSLSPGERATLSCRATQAISSTYLAWYQQKPGQAPRLLIYGAFSRAPGIPDRFSGSGSETDFTLTISRLEPEDFAVYYCQQSDRSPFTFGPGTKVDIK
notes: as for B1
Kd: 0.949 nM

B3: C1049 (antibody, V domains shown)
VH: EVQLVQSGAEVKKPGESLKISCKSSGYSFISHWIGWVRQMPGKGLEWMGIIWPGDSDTRYSPSFQGQVTISVDKSITTVYLQWSSLKAADTAMYYCARRGSSWEVDYWGQGTLVTVSS
VL: not shown
notes: as for B1
Kd: 2.35 nM

B4: B1030 (antibody, V domains shown)
VH: QVQLVQSGAEVKKPGASVRVSCKASGYTFTSYYMHWVRQAPGQGLEWMGIINPSDGGASYAQKFQGRVTMTSDTSTSTVYMELSSLRSEDTAVYYCARALRHHSSGWYSALDFQHWGQGTLVTVSS
VL: not shown
notes: as for B1
Kd: 5.06 nM

B5: C2488 (antibody, V domains shown)
VH: QVQLVESGGGVVQPGRSLRLSCAASGFTFSTHGMHWVRQAPGKGLEWMAVIYFDGSNKYYADSVKGRFAISRDNSKNTLFLQMNSLRADDTAVYHCATNSAGYGDSYETFDIWGQGTMVSVSS
VL: EIVMTQSPATLSVSPGERATLSCRASHSVGTNLAWYQQKPGQAPRLLIYGAFTRAAGISARFSGSGSGTEFTLTISSLQSEDLAVYYCQQYENWPPYTFGQGTKLEIK
notes: as for B1
Kd: 8.95 nM

B6: C1040 (antibody, V domains shown)
VH: QVQLVESGGGVVQPGRSLRLSCAASGFSFINYNMHWVRQAPGKGLEWVAVIWYDGSNKYYADSVKGRFTISRDNSKNTLYLQMNSLRVEDTAVYYCARDPAITEAEIDYWGQGTLVTVSS
VL: DVVMTQSPLSLPVTLGQAASISCRSSQSLVHSDGNTYLNWFQQRPGQSPRRLIYRVSNRDSGVPDRFSASGSGTDFTLKISRVEAEDVGVYYCMQGTHWPWTFGQGTKVEIK
notes: as for B1
Kd: 2.08 nM

B7: B1037 (antibody, V domains shown)
VH: QVQLVQSGAEVKKPGSSVKVSCKASGDTFISYAITWVRQAPGQGLEWMGRIIPILGVADYAPKFQGRVTITADKSTSTAYMELSSLRSEDTAVFYCASWRGREYNGYDWTGPTRGFDSWGQGTLVTVSS
VL: not shown
notes: as for B1
Kd: 3.21 nM

B8: C978 (antibody, V domains shown)
VH: QVQLVQSGAEVKKPGSSVKVSCKASGATFSNYIISWVRQAPGQGLEWMGRTIPLLDIANYAQKFQGRVTITADKSTRIVYMHLGSLTSEDTAVYYCATGKGYSSSSAAYYFDHWGQGTLVTVSS
VL: QSVLTQPPSVSGAPGQRVTISCTGTNSNIGAGYDIHWYQQLPGTAPKLLIYGSNNRPSGVPDRFSGSKSGTSASLAITGLQAEDEADYYCQSYDSSLSGSEVFGGGTKLTVL
notes: as for B1
Kd: 1.33 nM

B9: B2058 (antibody, V domains shown)
VH: EVQLVESGGGLIQPGGSLRLSCAASGLTVSSNYMSWVRQAPGKGLEWVSVIYPGGSTFYADSVKGRFTISRDNSKNTLYLQLNSLRADDTAVYFCARGDGYTDYYYGLDVWGQGTTVTVSS
VL: DIQLTQSPSSLSASVGDRVTITCRASQSISSYLNWYQQKPGKAPKLLIYAASSLQSGVPSRFSGSGSGTDFTLTISSLQPEDFATYYCQQRGFGQGTKVEIK
notes: as for B1
Kd: 1.02 nM

B10: B1032 (antibody, V domains shown)
VH: EVQLVESGGGLVQPGRSLRLSCEASGFTFEDFAMHWVRQAPGKGLEWVSGVSWNSGTIGYGDSVKGRFIIIRDNAKNSVYLQMNSLRPEDTAFYYCVKDMATYYKDISGTYGMDVWGQGTTVTVSS
VL: SYELTQTPSVSVAPGQTARITCVGNNIGSESVHWYQQKSGRAPVLVVYDDSDRPSGIPERFSGSTSGTTATLIINRVEAGDEAGYYCQVWDASSDHVVFGGGTKLTVL
notes: as for B1
Kd: 0.52 nM

B11: B1011 (antibody, V domains shown)
VH: QVQLVQSGAEVKKPGASVKVSCKASGYTFISYYTHWVRQAPGQGLEWMGIINPSDGYTSYAQKFQGRVTMTRDTSASTVYMELSSLRSEDTAVYYCARDSSIAARVVAWGQGTLVTVSS
VL: DIQMTQSPSSLSASVGDRVTITCQASQDIYNYLNWYQQKPGKAPKLLIFDAINLETGVPSRFSGSGSGTDFTFTISSLQPEDIATYYCQQHDNLPYSFGQGTKLEIK
notes: as for B1
Kd: 0.893 nM

B12: B1012 (antibody, V domains shown)
VH: B11 VH
VL: B11 VL with Y30G, I52S, T56A, G64A, T74A, T85A, N93D, K103T
notes: as for B1
Kd: 0.572 nM

B13: B2014 (antibody, V domains shown)
VH: QVQLVQSGAELKRPGASVKVSCKASGYTFSDYHMNWVRQAPGQGLEWMGIINPSGGGASYPQKFQGRVTMTRDTSTSTVFMQLNSLTYEDTAVYYCARGTPPSRGWYGGFDNWGQGTLVTVSS
VL: QSVLTQPPSVSGAPGQRITISCTGSTSNIGAGYDVQWYQQLPGTAPKLLIFDNNNRPSGVPDRFSGSKSGTSASLAITGLQAEDEADYYCQSFDSTLSGSTFVFGPGTKVTVL
notes: as for B1
Kd: 1.24 nM

B14: C963 (antibody, V domains shown)
VH: QVQLVQSGAEVKKPGSSVRVSCKASGGTFSSFTITWVRQAPGQGLEWMGRIIPNLNIPNYAQRFQGRITITAEKSTSTAYLELSSLRSEDTAVYYCARGVGYSGSGSNWYFDLWGRGTLVTVSS
VL: QSVLTQPPSVSGAPGQRVTISCTGSSSNIGAGYDVHWYQQLPGTAPKLLISGHINRPSGVPDRFSGSTSGTSASLAITGLQAEDEADYYCQSYDSSLSDSVFGGGTKLTV
notes: as for B1
Kd: 0.653 nM

B15: B1002 (antibody, V domains shown)
VH: QVQLVQSGAEVKKPGSSVKVTCRASGGTFSNLAISWVRQAPGQGLEWMGSIIPMFTISNYAQKLKGRVTITADKSTSTAYMELSSLRSGDTAVYFCASLGSNITVVRGAPITDHHFHYWGQGTLVTVSS
VL: QSALTQPASVSGSPGQSVTISCTGTSSDVGTYNLVSWYQQHPGKAPKLMIYEVSKRPSGVSNRFSGSKSGNTASLTISGLQAEDEADYYCCSYAASSTTHWVFGGGTKLAV
notes: as for B1
Kd: 0.732 nM

B16: C1034 (antibody, V domains shown)
VH: QLQLQESGPGLVKPSETLSLTCTVSGGSVSSNNHYWGWIRQPPGKGLEWIGSISSSGSTHHNPSLRSRVTISVDTSKNHFSLKLNSVTATDTAVYYCARVDSSGWYTGDVFDVWGQGTMVTVSS
VL: DIQMTQSPSSLSASVGDRVTITCRASQTINNYLNWYQQKPGKPPKLLIYAAFSLHSGVPSRFSGSRSGTDFTLTISSLQPEDFATYYCQHSYSTMCSFGQGTKLEIK
notes: as for B1
Kd: 1.98 nM

B17: C1047 (antibody, V domains shown)
VH: EVQLVQSGAEVKKPGESLKISCKGSGYSFISYWIVWVRQMPGKGLEWIGIIYPGDSDTIYSPSFQGQVTLSADKSISTAYLQWSSLKASDTAIYYCAKMVTSGTSYYETRGYASSGPFDNWGQGTLVTVSS
VL: DIQLTQSPSSLSASVGDRVTITCRASQGISSALAWYQQKPGKAPKLLIYDASSLESGVPSRFSGSGSGTDFTLTISSLQPEDFATYYCQQSDNFGPGTKVDI
notes: as for B1
Kd: 4.99 nM
